Measured values taken from US20200000877A1, “TREATMENT OF TUMOURS USING PEPTIDE-PROTEIN CONJUGATES” (priority 2014, published 2020).
“Also recorded” adds a separate entry of the source.

Tests used:
[1] = test system: tumour resident macrophages; experiment: TGFβ secretion of ex vivo purified tumour resident macrophages (ELISA); assay type: cell-based, mouse; conditions: macrophages from treated tumours; data not shown
[2] = test system: RIP1-Tag5 tumours; experiment: Long term treatment and survival studies in RIP1-Tag5 mice; assay type: in vivo, mouse
Description: 22 week-old RIP1-Tag5 mice were treated with bi-weekly i.v. injections of recombinant proteins as described for short term regimens for a total of 8 weeks and survival/tumour burden analysed at the set endpoint of 30 weeks. For adoptive transfer experiments, 2.5×10^6 activated TagTCR8 CD8^+ T cells were injected i.v twice (at week 4 and week 6). In adoptive transfer experiments (without LIGHT-RGR), mice received two adoptive transfers only. Chemotherapy: 22 week-old mice were treated with i.v. injections of 0.2 ng LIGHT-RGR bi-weekly over a period of 8 weeks and were simultaneously provided with […] cyclophosphamide (metronomic low dose) in drinking water throughout the experiment. The long term treatment regimen is shown schematically in FIG. 2. In addition, mice were treated with cyclophosphamide and/or LIGHT-RGR and survival monitored (death as endpoint).
For vaccination, mice were primed with one subcutaneous injection (tail base) of 50 μg recombinant Tag protein mixed with 50 μg Freund's adjuvant (Sigma). […] For combination therapies with checkpoint blockade, RIP1-Tag5 mice were treated with LIGHT-RGR (20 ng, iv, biweekly) in combination with anti-PD1 ([…].) and anti-CTLA4 ([…].) antibodies (BioXCell). In addition, mice were treated with triple combination of LIGHT-RGR/anti-PD1+anti CTL4/anti-Tag vaccine.
(§1) Mice were perfused with 2% neutral-buffered formalin before removal of tumours. Tumours were incubated in 10% (2 h) and 30% sucrose overnight and embedded in OCT compound. For immunohistochemistry the following antibodies were used: anti B220 (BD Pharmingen), anti-CD8 (Ly-2, BD Pharmingen), anti-CD31 (Mec 13.3., BD Pharmingen), anti-ICAM2 (3C4, BD Pharmigen), anti-CD45 (30-F11, BD Pharmingen), anti-CD68 (FA-11, BD Biosciences), anti-calponin (rabbit monoclonal EP798Y, Abcam), anti-caldesmon (rabbit monoclonal E89, Abcam), anti-collagen I or collagen IV (rabbit polyclonal, Abcam), Ki67 (PP67, Abcam), MECA79 (American type tissue culture, ATCC) and αSMA (1A4, Sigma). For secondary detection, AMCA (7-Amino-4-methylcoumarin-3-acetic acid), Cy-3 or FITC-conjugated IgG F(ab′)2 fragments (Jackson Immuno Research) were used. The αSMA staining was amplified using the mouse on mouse (M.O.M.) kit (Vector). For lectin perfusion, mice were i.v. injected with 50 μg of FITC-labelled tomato lectin (Lycopersicon esculentum, Vector). After 10 min of circulation, mice were heart-perfused with 2% neutral-buffered formalin and tumours frozen in OCT. To evaluate vessel leakiness, 1 mg of 70 kDa Texas Red Dextran (Invitrogen) was injected i.v. and allowed to circulate for 10 min. Mice were heart-perfused with PBS followed by 2% neutral buffered formalin and tumours frozen in OCT. Apoptosis was assessed using TUNEL staining (Roche). Images were recorded on a Nikon Ti-E microscope and quantified using NIS software modules (version 3.0).
Cumulative survival time was calculated by the Kaplan-Meier method and analyzed by the log-rank test. Student's t test (2-tailed) was used unless indicated otherwise. A P value of less than 0.05 was considered statistically significant. Error bars indicate SD unless stated otherwise.
To study the complex interrelationship between tumour, tumour vessels and the immune system, the inventors' analyses focused on a transgenic mouse model which develops spontaneous tumours that mimic the clinical scenario with regard to native anatomical location, slow growth kinetics, and multistep tumour progression.

[3] = test system: stromal cells; experiment: CCL21 secretion by stromal cells
[4] = test system: RIP1-Tag5 tumours; experiment: Short term treatment of tumour-bearing RIP1-Tag5 mice, tumour histology; assay type: in vivo, mouse; conditions: 2 μg; regimen not stated
[5] = test system: RIP1-Tag5 tumours; experiment: as above; assay type: in vivo, mouse
Description: Short term treatment: commencing at 26-27 weeks of age mice were treated for 2 weeks with bi-weekly intravenous (i.v.) injections of recombinant proteins in 100 μl volume at 0.2 ng (equivalent to approximately […] body weight for a 30 g mouse) or 20 ng (equivalent to approximately […] body weight for a 30 g mouse) LIGHT or LIGHT-RGR. When indicated this was followed by one adoptive transfer of TagTCR8 (CD8+) T cells. Four days later, mice were sacrificed and tumours were isolated for histology. For adoptive transfer experiments, TagTCR8 lymph node cells were activated in vitro for 3 days, with 10 U of rIL-2/ml and 25 nM Tag peptide […] (SEFLIEKRI). 2.5×10^6 activated CD8^+ T cells were injected i.v once. The short term treatment regimen is shown schematically in FIG. 1
as §1
To study the complex interrelationship between tumour, tumour vessels and the immune system, the inventors' analyses focused on a transgenic mouse model which develops spontaneous tumours that mimic the clinical scenario with regard to native anatomical location, slow growth kinetics, and multistep tumour progression. In RIP1-Tag5 mice, the oncogene SV40 Large T antigen (Tag; RIP, rat insulin gene promoter) is exclusively expressed in β cells of the pancreas leading to stepwise tumour development through well-characterized stages progressing from hyperplastic islets, to the initiation of Tag expression at approximately 10 weeks, the onset of blood vessel formation in angiogenic islets (termed “angiogenic switch”) at approximately 16 weeks and then to highly vascularised solid tumours at approximately 22 weeks, followed by death at approximately 30 weeks.

[6] = test system: 4T1 breast cancer; experiment: Breast tumour model, orthotopic 4T1 in Balb/c mice, tumour histology; assay type: in vivo, mouse
Description: (§2) Murine breast cancer cells (5×10^6, 4T1 from ATCC) were injected orthotopically into the mammary fat pad of Balb/c mice. […] Mice were injected with pimonidazole (hypoxia marker) and FITC-labelled lectin. After 1 h/10 min (pimonidazole/lectin, respectively) circulation, mice were perfused with 2% formalin and tumors dissected and fresh frozen in OCT compound. Tumours were analyzed by histology for vessel frequency (CD31), quality of vessel perfusion (CD31 plus lectin-FITC), caldesmon induction and frequency of intratumoral hypoxia (pimonidazole staining).
as §2, with “caldesmon (contractile pericyte marker)” for “caldesmon”

[7] = test system: pericyte cell line; experiment: Calponin/caldesmin expression in pericyte cell line in vitro; assay type: cell-based; conditions: direct LIGHT induction; data not shown
[8] = 0.2 ng i.v. bi-weekly for 2 weeks
[9] = 20 ng i.v. bi-weekly for 2 weeks

B1: LIGHT-RGR (protein)
chain: MESVVQPSVFVVDGQTDIPFRRLEQNHRRRRCGTVQVSLALVLLLGAGLATQGWFLLRLHQRLGDIVAHLPDGGKGSWEKLIQDQRSHQANPAAHLTGANASLIGIGGPLLWETRLGLAFLRGLTYHDGALVTMEPGYYYVYSKVQLSGVGCPQGLANGLPITHGLYKRTSRYPKELELLVSRRSPCGRANSSRVWWDSSFLGGVVHLEAGEEVVVRVPGNRLVRPRDGTRSYFGAFMVGGGCRGRRSTG
TGFβ secretion by tumour macrophages [1]: stimulates macrophages in the tumour environment to secrete TGFβ | survival of RIP1-Tag5 mice at week 30 ([2]; 0.2 ng LIGHT-RGR combined with adoptive T cell transfer): approximately 70% | survival over vaccination alone or vaccination with LIGHT ([2]; 0.2 ng in combination with anti-Tag vaccination): substantially increased survival | inflammatory response at tumour site / tumour appearance ([2]; 0.2 ng long term in combination with adoptive transfer of anti-Tag lymphocytes): substantial inflammatory response at the tumour site and pale | tumour size / tumour burden ([2]; 0.2 ng plus cyclophosphamide, 8 weeks): shift from large tumours to smaller tumours | apoptotic tumour cells (TUNEL), compared to each treatment alone ([2]; 0.2 ng plus low dose metronomic cyclophosphamide in drinking water, 8 weeks): significant increase in apoptotic tumour cells | survival compared to controls ([2]; 20 ng LIGHT-RGR with anti-PD-1 (250 μg) and anti-CTLA4 (75 μg) antibodies, week 23 to 45): significantly increased survival | survival at 45 weeks of age ([2]; 20 ng LIGHT-RGR with tumour specific (anti-Tag) vaccine): 30% | RIP1-Tag5 mice alive at 45 weeks ([2]; 20 ng LIGHT-RGR+vaccine+anti-PD-1+anti-CTLA4): 70% | tumour cell apoptosis (TUNEL) ([2]; 20 ng, long term): increase in tumour cell apoptosis | tumour cell content (Dapi, H&E) ([2]; 20 ng, long term): substantial reduction of tumour cells | tumour necrosis at 30 weeks ([2]; 20 ng, long term): highly necrotic | survival compared to either treatment alone ([2]; LIGHT-RGR in combination with cyclophosphamide from week 22): significant increased survival | survival of RIP1-Tag5 mice at week 30 ([2]; single treatments, LIGHT-RGR 0.2 ng, treated from week 22): approximately 30% | CCL21 secretion by stromal cells [3]: stimulates stromal cells to secrete CCL21 | effect on vessels in RIP1-Tag5 mice [4]: caused vessel death | collagen IV alignment / stromal Col IV [5, 8]: close vessel alignment of collagen IV; also recorded: decreased stromal Col IV | pericyte attachment to vessels (αSMA+ pericytes) [5, 8]: firm attachment of pericytes to vessels; also recorded: significantly decreased the protrusion of αSMA+ pericytes from the vasculature | normalization of tumour vessels (histology) ([5]; 0.2 ng i.v. bi-weekly for 2 weeks (four injections), RIP1-Tag5 mice): normalized chaotic tumour vessels | total vessel counts / CD31 surface area ([5]; 0.2 ng i.v. bi-weekly for 2 weeks, CD31 vessel marker): without affecting total vessel counts; also recorded: total surface area of CD31 remained intact | tumour vessel caliber ([5]; 0.2 ng i.v. bi-weekly for 2 weeks, small <30 μm, larger 150-200 μm): shift from large to small caliber tumour vessels; also recorded: significant increase in small vessels | T cell infiltration, compared to either treatment on their own ([5]; 0.2 ng in combination with adoptive transfer of in vitro activated CD8+ T cells): significantly improves T cell infiltration | tumour perfusion (FITC-lectin staining of vessels) ([5]; 0.2 ng, 2 week treatment): indicative of adequate perfusion; also recorded: increased tumour perfusion | vessel leakiness (extravasation of 70 kDa dextran) ([5]; 0.2 ng, 2 week treatment): less leaky phenotype; also recorded: reduced vascular leakiness | CD8+ T cell infiltration ([5]; 0.2 ng, short term): enhance CD8+ T cell infiltration | ICAM-1 expression on tumour endothelial cells ([5]; 0.2 ng, short term): increases expression of the inflammatory adhesion molecule ICAM-1 | expression of collagen I in normalized vessels ([5]; 0.2 ng, short term): significantly down regulated | expression of contractile markers calponin and caldesmon in αSMA-positive tumour pericytes ([5]; 0.2 ng, short term): significant increase in expression; also recorded: significantly up regulated | function of vessels within the tumour ([5]; 0.2 ng, short term): improved the function of vessels within the tumour | formation of ectopic lymph node structures associated with HEVs (MECA79) [5, 9]: induced the formation of ectopic lymph node structures | tumours with HEV structures [5, 9]: 60-75% | immune cell infiltration of intratumoural areas surrounding HEVs ([5]; 20 ng, short term): heavily infiltrated with T cells and B cells | efficacy (total tumour burden by weight) ([5]; two week, 20 ng LIGHT-RGR with anti-PD-1/anti-CTLA4 double treatment versus single antibodies): superior to single treatment | vessel normalization as shown for RIP1-Tag5 mice ([6]; 20 ng): reproduced all aspects of vessel normalization | vessel normalization ([6]; 20 ng i.v. bi-weekly for 2 weeks, 4T1): induces vessel normalization | contractile markers in pericytes (caldesmon) ([6]; 20 ng, 4T1): induced contractile markers in pericytes | overall vascularity (CD31+ vessels) ([6]; 20 ng, 4T1): without change in overall vascularity | tumour hypoxia (pimonidazole) ([6]; 20 ng, 4T1): reduced tumour hypoxia; also recorded: reduces tumor hypoxia | vessel calibers ([6]; 20 ng, 4T1): reduced vessel calibers | vessel perfusion (FITC-lectin) ([6]; 20 ng, 4T1): increases vessel perfusion | binding affinity to tumor vessels relative to RIP1-Tag5 ([6]; breast cancer model): lower binding affinity to tumor vessels | dose required to recapitulate the vessel phenotype of RIP1-Tag5 mice treated with 0.2 ng ([6]; breast cancer model): 20 ng

B2: LIGHT (protein, listed as Mus musculus)
chain: MESVVQPSVFVVDGQTDIPFRRLEQNHRRRRCGTVQVSLALVLLLGAGLATQGWFLLRLHQRLGDIVAHLPDGGKGSWEKLIQDQRSHQANPAAHLTGANASLIGIGGPLLWETRLGLAFLRGLTYHDGALVTMEPGYYYVYSKVQLSGVGCPQGLANGLPITHGLYKRTSRYPKELELLVSRRSPCGRANSSRVWWDSSFLGGVVHLEAGEEVVVRVPGNRLVRPRDGTRSYFGAFMV
calponin/caldesmin induction in pericyte cells [7]: not induced | vessel leakiness (extravasation of 70 kDa dextran) ([5]; 0.2 ng, 2 week treatment): leaky phenotype
